Test: soluble on expression in E. coli; label from the status in PepcDB or PDB records

Row | Sequence | soluble on expression in E. coli
1 | MSLRRFKFQYKETIVTILTENEEFYKTAVKAILEARSEIEDYILHNPDFFTSYEPIECSGGEIINRMCNAAKIAGVGPMAAVAGTIAAYAVEKMIDAGAKLAVVDNGGDIVIHSDRELLVGIYPSKLAFKVPPVDYLAICTSSGKIGHSVSFGKADAATVVARDASVADALATALGNLIGDFGKKELEKTVSEFYGKYSDFVEGILVVKDELVALAGNLPSLAFAESKEDLITKGEGHHHHHH | soluble
2 | MAHHHHHHMKPKIPFIIEIFSSFGDNYSTNYIEKEMNLDIMNVVKNYDLDTLVEENKEANGTPHVTVDDAVDQIMDRFYDCSVFHKIILLDVSILFERVE | not soluble
3 | VFDWDGTLVDSIARIVDSMKAAARETALPERGDTRIKGIIGLGLPEAIASLYPEVGDPALVERFRCAYSEHYLAQEAQPSRLFPGVAEAMVHFREAGFRLAVATGKSRRGLDRVLAGHGWSDFFDITRCADETASKPDPLMLHEILAHCRVEPGRALMIGDSPFDLEMARRAGMDSVAVAYGAQSLEQLRPYAPRLEVEHFTELRAWLGGARREAVS | not soluble
4 | MRTFTWRKGSLSKVNTCYVLAGGKSKRFGEDKLLYEIKGKKVIERVYETAKSVFKEVYIVAKDREKFSFLNAPVVLDEFEESASIIGLYTALKHAKEENVFVLSGDLPLMKKETVLYVLENFKEPVSVAKTEKLHTLVGVYSKKLLEKIEERIKKGDYRIWALLKDVGYNEVEIPEELRYTLLNMNTKEDLKRILAIENHY | soluble
5 | MYVYKRDGRKEPVQFDKITARISRLCYGLDPKHIDAVKVTQRIISGVYEGVTTIELDNLAAETCAYMTTVHPDYATLAARIAISNLHKQTTKQFSKVVEDLYRYVNAATGKPAPMISDDVYNIVMENKDKLNSAIVYDRDFQYSYFGFKTLERSYLLRINGQVAERPQHLIMRVALGIHGRDIEAALETYNLMSLKYFTHASPTLFNAGTPKPQMSSCFLVAMKEDSIEGIYDTLKECALISKTAGGIGLHIHNIRSTGSYIAGTNGTSNGLIPMIRVFNNTARYVDQGGNKRPGAFALYLEPWHADIFDFIDIRKNHGKEEIRARDLFPALWIPDLFMKRVEENGTWTLFSPTSAPGLSDCYGDEFEALYTRYEKEGRGKTIKAQKLWYSILEAQTETGTPFVVYKDACNRKSNQKNLGVIKSSNLCCEIVEYSAPDETAVCNLASVALPAFIETSEDGKTSTYNFKKLHEIAKVVTRNLNRVIDRNYYPVEEARKSNMRHRPIALGVQGLADTFMLLRLPFDSEEARLLNIQIFETIYHASMEASCELAQKDGPYETFQGSPASQGILQFDMWDQKPYGMWDWDTLRKDIMKHGVRNSLTMAPMPTASTSQILGYNECFEPVTSNMYSRRVLSGEFQVVNPYLLRDLVDLGIWDEGMKQYLITQNGSIQGLPNVPQELKDLYKTVWEISQKTIINMAADRSVYIDQSHSLNLFLRAPTMGKLTSMHFYGWKKGLKTGMYYLRTQAASAAIQFTIDQKIADQATENVADISNLKRPSYMPSSASYAASDFVPAAVTANATIPSLDSSSEASREASPAPTGSHSLTKGMAELNVQESKVEVPEVPAPTKNEEKAAPIVDDEETEFDIYNSKVIACAIDNPEACEMCSG | soluble
6 | MNEMPVQPTPAPPVDAPSPDGDRDLFGWRVRADLPLPELPVWAGDGRAPDILIRVAAVSPLDDGAQVFSPRIRFIEATLCFDVPDVARYRVDGGHLVTIEAARGIAADAPEIRLFFFGTVLAVLCFRRGLIPLHASAVALDGRALLLSGESGTGKSTLAAALLARGYPLLSDDLCALDVSCPDKPMILPCTAHLKLWGDAAARLGIATDGMTPVRRHLDKFRIPVRSASDAPLGPGTIIRLKRVTRAEQVGTRPLLGAEALCYDLIHRFRLGIALGYQSTMLTALAPLVRSAPIIQLNRRDDLGALPDLADHVIRLARDERRDLEHHHHHH | not soluble
7 | MDHRAQAREVFVRAQLEAVQKAITKNEVPLKPKHARTIIVGTHKEKSSGIFWHTVGRIQLEKHPVLTWKFCHLVHKLLRDGHRKVPEETYRYVNRFTQLSQFWKHLNTSGYGPCIESYCKLLHDRVTFHNKYPVVPGKLDLNDSQLKTLEGDLDNMFEMTIDMLDQMDALLVLQDRVYEMMNSLRWNSLIPQGQCMLSPLIIAILDTSKFYDYLVKMIFKLHSQVPPDALEGHRSRFRTIFERTKKFYEESSNLQYFKYLVSIPTLPSHAPNFLQQSDLESYRTPHAYLHSEGSEDGTSLNGHDGELLNLAEAEPQQASPSSQPDPREEQIVMLSRAVEDEKFAKERLIQEARSRIEQYENRLLQMQGEFDHAKREADENREEAQRLKNELALRDASRTQTDDARVKEAELKATAAEERFNKMKGVYEKFRSEHVLALTKLGDIQKQLEASEKSKFDKDEEITALNRKVEEAQREAGRALTKAEGDAGAVDEMRTQLVKADIEVEELKRTIDHLRESHANQLVQSSAEETNKIRLAELEVAKESGVGITQMFDHCEDALQNATSITYPPHLAQSAMNNLVNILSNERLDEPLATKDNVFAGHLLSTTLSAAASAAYTASIESYEGVNDQCKKVLAAAKVAFSDDSALSRADKMKLLRQDIQTLNSLMISLPLQTDIDKDVVGNELEQEMRRMDDAIRRAVQEIEAIQRRARESSDGIRLEVNESILANCQALMSVIMQLVIASRELQTEIVAAGKAGGSPAEFYKRNHQWTEGLLSAAKAVGVAARVLVESADGVVTGKGKFEHLIVAAQEIAASTAQLFVSSRVKADKDSSKLDALSVAAKAVNQNTAQVVAAVKNGQTTLNDEGSLDFSYLSLHAAKKEEMESQVKMLELEQSLNQERAKLAALRKQHYHMAQLVANKEGEEAQE | not soluble
8 | MGSDKIHHHHHHMLGRTANGLYWMFRYIERAENSARLIDAGLRMSLTRSEAAEDDWDGVLQSADVRELYDQVHEGLTSGDAIDFLLRDRTNPSSVMSCIEAGRNNARMVRTALTRETWEAINECWIEMKGILARRAKTTDMPEIIDTIKRRAGLIRGAFHGTMLRNEIFNFSRIGTFIERADNTARILDVKYYVLLPAVSAVGSSMDNVQWESILRSVSAHRSYGWVYDAELRPANIADFLIANGRMPRSLAYCYDKLVSNLGYLAREYGERHAAHETAEQTLGLLRSQSIAEIMDQGLHQYLKEFINQNNRLGREISDGYRFYQ | not soluble
9 | MNKIYIKNMVCDRCIMVVTNILSQLELKVAHIALGEIVLLCPPTEKQMQELLDQLQKVGFEIIDDKRSRIVEQIKTCIRELVHRKNGMLKTNLSDYLCENIHLDYSYLSGLFSENEGRTIEKYFIYQKIERVKELLVYDDMQLSEIAYIMNYSSVAHLSNQFKKVTGFTPTYFKQMSTQCRKPLDKL | not soluble
10 | MSDILKCIGCGAPLQSEDKNKPGFVPEHNMFRDDVICRRCFRLKNYNEVQDVGLESEDFLKLLSGLADKKGIVVNVVDVFDFEGSFINAVKRIVGNKKIILAANKLDLLPKQINKRRVKEWLKRTARKYGLEADDVVLISAEKGWGIDDLLSSIANIRENEDVYIVGTTNVGKSTLINKLIEASVGEKDVVTTSRFPGTTLDMIDIPLDESSFMYDTPGIIQDHQMTHLVSEKELKIIMPKKEIKQRVYQLNEAQTLFFGGLARIDYVSGGKRPLVCFFSNDLNIHRTKTEKANDLWRNQLGDLLTPPGNPQNFDLNELKAVRLETGKEKRDVMISGLGFITIGPGAKVIVRVPKNVDVVLRNSILLEHHHHHH | soluble
11 | MAHHHHHHMKQLLSPKTARHSRLFRLANRLAGQKGAPESDGERLSWVNSHVKRTQDMELSREEEALRERIMPLEVGDNAVVSNSQATHGNLFHFREYPMYPGEYVPAGHNTLSSLRDELRSDLTAQSLKEAWMRVSGGMYFKSIDDYYASVDGLDQEQLGEIVSALLPDLRKYEAQALVTKVLESLSKPADSPSRQLSRTITADAVGLDNAPGHYTNFLEWMGRMTETKAFKTEHALFEFSRRKFNREDVRVMFENYNLMSKATLEADSTDSYSHFYTVLHDFSRKVAGEDTRHQIGVRIDPAEVDPETGIAVGHGRADGQKYMFTALIRENRDHNGSVTLLGKPLSVAFDDKSWLMEMVLMPFDEAKLDFRDFDVNLISEGKAMPSFANEIAAFACRMAVANAITKLLPLARIPLKKAGLLSVDRRREPGQFPGFVDGKKNKRKFAKR | not soluble
12 | MGSDKIHHHHHHMKSNTTMSKTERLFHLLQILRRYRYPLSGQFLANELGVSTRTIYRDIAALQAQGADIEGEPGLGYVLKPGFMLPPLMFNEEEIEALVLGSRWVAKKTDTHLQQAAHNALAKIASVLPADLRQQLELSSLLIGPGEVISGEDESLALVRKAIRKELKLFIQYHDLKGNVSTRTIWPIGLGYFDQVRVLIAWCELKKDFRHFRADRIVDVENLGVCYAKRRSVLLHDWRKQNNIPG | not soluble
13 | MIQERKNLVTFGDQLVEAGRRLGRLCVGIDPHPSLLKQWGCDDGIAGLQRFTEICVEAFSGNVALVKPQVAFYEAWGAAGYQILESAISELRQAGTLVLSDAKRGDIGSTMAGYAQAWLAEESSLSSDAVTVSPFLGYGSLSPVLEVAASTNKGVFVLAATSNPEARSLQDRIGEDGLSISQLMVDSVALSNREHKENNHYGNVGVVIGATLAHPPQLERLNGPILLPGVGAQGATPADVARLTQGVQELAFANVSRGILKAGPSASALSTAISKFVEEFTN | not soluble
14 | MFDILMYLFENYVHSEVELLVDEDELTKELTRAGFHQSEILKALTWLERLAELQEGDKPYLCNHDQHSFRIYTKDEMEKLDVECRGFLLFLEQVKVLNVETREMVIDRVMELDEPALILEDLKWVILMVLFNAPGHESAYEQMEDLIFEQPEEGRLHS | soluble
15 | MSTMGNEASYPAEMCSHFDNDEIKRLGRRFKKLDLDKSGSLSVEEFMSLPELRHNPLVRRVIDVFDTDGDGEVDFKEFILGTSQFSVKGDEEQKLRFAFSIYDMDKDGYISNGELFQVLKMMVGNNLTDWQLQQLVDKTIIILDKDGDGKISFEEFSAVVRDLEIHKKLVLIV | soluble
16 | MEKIGETMAKLGQNTRVNSDQLIQTILADPEVASFISQHHLSQEQINLSLSKFNQFLVERQKYQLKDPSYIAKGYQPILAMNEGYADVSYLETKELVEAQKQAAISERIQLVSLPKSYRHIHLSDIDVNNASRMEAFSAILDFVEQYPSAEQKGLYLYGDMGIGKSYLLAAMAHELSEKKGVSTTLLHFPSFAIDVKNAISNGSVKEEIDAVKNVPVLILDDIGAEQATSWVRDEVLQVILQYRMLEELPTFFTSNYSFADLERKWATIKGSDETWQAKRVMERVRYLAREFHLEGANRRLEHHHHHH | soluble
17 | MSDQLQMTDGMHIIVEALKQNNIDTIYGVVGIPVTDMARHAQAEGIRYIGFRHEQSAGYAAAASGFLTQKPGICLTVSAPGFLNGLTALANATVNGFPMIMISGSSDRAIVDLQQGDYEELDQMNAAKPYAKAAFRVNQPQDLGIALARAIRVSVSGRPGGVYLDLPANVLAATMEKDEALTTIVKVENPSPALLPCPKSVTSAISLLAKAERPLIILGKGAAYSQADEQLREFIESAQIPFLPMSMAKGILEDTHPLSAAAARSFALANADVVMLVGARLNWLLAHGKKGWAADTQFIQLDIEPQEIDSNRPIAVPVVGDIASSMQGMLAELKQNTFTTPLVWRDILNIHKQQNAQKMHEKLSTDTQPLNYFNALSAVRDVLRENQDIYLVNEGANTLDNARNIIDMYKPRRRLDCGTWGVMGIGMGYAIGASVTSGSPVVAIEGDSAFGFSGMEIETICRYNLPVTIVIFNNGGIYRGDGVDLSGAGAPSPTDLLHHARYDKLMDAFRGVGYNVTTTDELRHALTTGIQSRKPTIINVVIDPAAGTESGHITKLNPKQVAGN | soluble
18 | MKGQLAFDLPIRPALSREDFFISPANALALASLDGWRDWPRGKMVLVGPRGSGKTHLAHIWAAQAEARLIPAEALARADLPALAADGAVAVEDAERLGGDRAAEEALFHLHNLMLERAGALLITAAGPPRDWGLGLADLKSRMQAASVTRLEAPDDALLSAMLVKLFTDRQIAVPGMLVPWLVARMDRSCEAARALVAALDARSLAERRPISRQMAAELLGLTATDLEHHHHHH | not soluble
